These are literature values, as cited in article PMC6769993, “Immunomodulatory Functions of the Human Cathelicidin LL-37 (aa 13–31)-Derived Peptides are Associated with Predicted α-Helical Propensity and Hydrophobic Index” (Biomolecules, 2019).

The text on this data set: The minimum region of LL-37 required for its immunomodulatory functions is an internal sequence from amino acids 13–31 [13], known as peptide IG-19. […] IG-19 suppresses inflammatory cytokine production by engaging various signaling intermediates in the presence of bacterial endotoxin or cytokine IL-32 [10, 13, 14]. Both LL-37 and IG-19 also share structural similarities; these are both α-helical amphipathic peptides with net positive charges of +6 and +5, respectively. Previous s ...

Take “LL-37: the only human cathelicidin cationic host defense peptide, 37 amino acids”: the Net positive charge entry is reported as “+6”.
